Measurements as given in patent publication US20090138983A1 (POSTECH FOUNDATION, published 2009).

Assays:
[1] = target: T1, T7-tagged AtBG1 (Arabidopsis thaliana β-glucosidase 1) (Arabidopsis thaliana, UniProt Q9SE50 27-528); experiment: co-immunoprecipitation with anti-T7 antibody, anti-HA Western blot, densitometry
T1 construct: Co-expressed with AtBG1:HA in protoplasts; pulled down with anti-T7 antibody; also called AtBG1:T7; not shown: T7 tag
T1 sequence (looked up): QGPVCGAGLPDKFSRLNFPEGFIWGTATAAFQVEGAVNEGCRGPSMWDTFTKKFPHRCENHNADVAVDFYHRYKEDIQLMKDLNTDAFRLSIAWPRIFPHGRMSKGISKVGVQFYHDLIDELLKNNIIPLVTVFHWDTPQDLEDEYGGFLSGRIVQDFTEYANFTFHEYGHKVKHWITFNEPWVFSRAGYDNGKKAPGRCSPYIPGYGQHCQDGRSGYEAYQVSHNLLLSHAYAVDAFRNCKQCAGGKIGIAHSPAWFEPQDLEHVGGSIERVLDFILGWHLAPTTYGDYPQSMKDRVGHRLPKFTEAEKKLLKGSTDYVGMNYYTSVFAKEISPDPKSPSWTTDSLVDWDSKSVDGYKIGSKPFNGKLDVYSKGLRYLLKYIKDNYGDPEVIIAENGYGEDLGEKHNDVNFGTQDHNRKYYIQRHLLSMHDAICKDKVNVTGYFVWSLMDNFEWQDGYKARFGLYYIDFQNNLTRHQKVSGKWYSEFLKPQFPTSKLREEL
Description: The present inventors also investigated the mechanism by which dehydration stress activates AtBG1. […] Thus, the present inventors investigated whether the mechanism by which dehydration stress activates AtBG1 is attributed to AtBG1 polymerization. Protein extracts were prepared from protoplasts co-transformed with two differently tagged forms of AtBG1, AtBG1:HA and AtBG1:T7, according to the same method as described in the above Example, and used for co-immunoprecipitation with anti-T7 antibody. Immunoprecipitates were analyzed by Western blotting using anti-HA antibody to investigate the interaction between AtBG1 molecules. As a result, HA-tagged AtBG1 was detected in the precipitate immunoprecipitated with T7-antibody (FIG. 35). Furthermore, the amount of HA-tagged AtBG1 in the precipitate was increased by approximately 3-fold upon treatment of protoplasts with 10% PEG 8000, a chemical that induces dehydration stress, for 12 hours (measured by densitometery software, FIG. 35). Therefore, the present inventors concluded that AtBG1 undergoes homomeric interactions, which are enhanced under conditions of dehydration stress.

B1: HA-tagged AtBG1 (Arabidopsis thaliana β-glucosidase 1) (enzyme, UniProt Q9SE50 27-528, looked up)
chain: QGPVCGAGLPDKFSRLNFPEGFIWGTATAAFQVEGAVNEGCRGPSMWDTFTKKFPHRCENHNADVAVDFYHRYKEDIQLMKDLNTDAFRLSIAWPRIFPHGRMSKGISKVGVQFYHDLIDELLKNNIIPLVTVFHWDTPQDLEDEYGGFLSGRIVQDFTEYANFTFHEYGHKVKHWITFNEPWVFSRAGYDNGKKAPGRCSPYIPGYGQHCQDGRSGYEAYQVSHNLLLSHAYAVDAFRNCKQCAGGKIGIAHSPAWFEPQDLEHVGGSIERVLDFILGWHLAPTTYGDYPQSMKDRVGHRLPKFTEAEKKLLKGSTDYVGMNYYTSVFAKEISPDPKSPSWTTDSLVDWDSKSVDGYKIGSKPFNGKLDVYSKGLRYLLKYIKDNYGDPEVIIAENGYGEDLGEKHNDVNFGTQDHNRKYYIQRHLLSMHDAICKDKVNVTGYFVWSLMDNFEWQDGYKARFGLYYIDFQNNLTRHQKVSGKWYSEFLKPQFPTSKLREEL
notes: Expressed in Arabidopsis protoplasts or in 'rescued atbg1' plants and tested in protein extracts; also called AtBG1:HA; AtBG1::HA; not shown: virus HA (hemagglutinin) tag
Q9SE50
  ABA-GE hydrolyzing activity (ABA content by ELISA) of high against low molecular weight forms of AtBG1 after gel filtration and anti-HA immunoprecipitation: High molecular weight forms exhibited 4-fold higher AtBG1 activity
[1]
  fold increase of the co-precipitated amount upon 10% PEG 8000 (12 hours) against untreated protoplasts: ~3 fold
